Results published in patent US20100143379A1 (priority 2005, published 2010).

What was measured:
Assay type in all cases: cell-based
[1] = tested on: human K562 progenitor cell line; test: K562 terminal erythropoietic differentiation (DAF stain) and hemoglobin content
Protocol: The neutralizing anti-MIF mAb was added at 100 μg/ml. DAF positive cells were enumerated and expressed as fold-change over total, input cells. FIG. 2B: cellular hemoglobin content of cultured K562 progenitor cells. […] Each value represents the mean±SD of at least three different experiments. *P<0.01 versus corresponding controls.
(§1) The human K562 progenitor cell line (ATCC, CCL-243) was cultured in RPMI/10% FBS supplemented with penicillin and streptomycin. For differentiation, sodium butyrate (AldRick, Milwaukee, Wis.) was added in the medium (Witt et al. 2000. Blood 95:2391-2396). Terminal erythropoietic differentiation was measured as described by McGukin et al. (McGuckin et al. 2003. European Journal of Haematology 70:106-114) and positive cells enumerated after staining with 2,7-diaminofluorene (Sigma, St. Louis, Mo.). To quantify hemoglobin synthesis, the cells were centrifuged and washed in PBS, and the cell pellet resuspended in lysis buffer (100 mM potassium phosphate pH 7.8, 0.2% Triton X-100) before disruption by aspiration through a 21-gauge needle. After microcentrifugation, the supernatant was collected and the hemoglobin concentration was determined using the hemoglobin kit from Sigma. Cell viability was assessed by trypan blue dye exclusion and found to be equivalent (85-90% viability) between all samples studied.

[2] = tested on: COS-7/CD74+CD44 cell line; test: In vitro apoptosis, caspase-3 activity, COS-7 cell lines; settings: MIF 100 ng/ml; apoptosis inducers SNP and camptothecin, 24 hrs
Protocol: Apoptosis Studies. […] Cell lysates were collected, and caspase-3 activity analyzed using a colorimetric assay kit (R&D Systems). Cytoplasmic p53 content was analyzed as described previously (Mitchell et al. (2002). Proc Natl Acad Sci USA 99:345-350) by immunoblotting of mouse cytosolic fractions using a pair of anti-phospho-p53 (Ser15) (R&D Systems) and total anti-p53 antibodies (Cell Signaling); and for COS-7 cells, the anti-p53 (Ser15) and total anti-p53 antibodies (Cell Signaling). In vivo apoptosis studies followed the procedures of (Mitchell et al. (2002). Proc Natl Acad Sci USA 99:345-350), and were conducted after i.p injection of 15 mg/kg lipopolysaccharide (E. coli 0111:B4; Sigma). Mice were sacrificed 24 hrs after priming and the peritoneal macrophage cells collected and immediately analyzed for apoptosis by an ELISA that detects cytoplasmic oligonucleosomes (Roche Diagnostics). Primary macrophages also were immunostained by Alexa 488-conjugated, Annexin V (Invitrogen), and apoptotic cells enumerated by fluorescence microscopy.

R5 (ADA) strain of HIV-1 = test: HIV-1 replication in PHA-activated PBMC cultures (RT activity); settings: 50 ng/ml; p<0.01
Protocol: (§2) At indicated time points after infection, reverse transcriptase activity was measured in culture supernatants. Results are mean±SD. Whereas differences between MIF-treated and control cultures of ADA-infected PBMCs are highly statistically significant (p<0.01), differences between MIF-treated and control cultures of LAI-infected cells are not significant (p>0.05).
(§3) At indicated time points after infection, reverse transcriptase activity was measured in culture supernatants. Whereas differences between MIF-treated and control cultures of ADA-infected PBMCs are highly statistically significant (p<0.01), differences between MIF-treated and control cultures of LAI-infected cells are not significant (p>0.05) (FIG. 8).

X4 (LAI) strain of HIV-1 = test: as above; settings: 50 ng/ml; p>0.05
Protocol: as §2, §3

p56^lck = test: Tyrosine kinase phosphorylation in COS-7/M6 transformants and MEFs (immunoblot); settings: only in the cells expressing both CD74 and full-length CD44
Protocol: Cells then were harvested and lysed in buffer containing 50 mM Hepes, pH7.5, 150 mM NaCl, 1.5 mM MgCl2, 1 mM EGTA, 1% Glycerol and 1% Triton X-100, and freshly added phosphatase and proteinase inhibitors (1 mM orthovanandate, 10 mM NaF, 10 μg/ml leupeptin, 25 μg/ml aprotinin and 50 μg/ml PMSF). For immunoblotting, 15-20 μg of cell lysate proteins were separated by 10% SDS-PAGE and transferred to PVDF Immobilon-P transfer membranes (Millipore). The blots were developed with specific primary antibodies that included a pair of anti-phospho-ERK-1/2 (sc-7383, Santa Cruz) and anti-(total) ERK-1/2 (sc-94, Santa Cruz) antibodies, a pair of anti-phospho-p56^lck (Cell Signaling) and anti-(total) p56^lck (sc-433, Santa Cruz) antibodies, or a pair of anti-phospho-Src and anti-(total) Src antibodies (Cell Signaling). The secondary antibodies included anti-mouse IgG or anti-rabbit IgG conjugated with horseradish peroxidase (Cell Signaling). The ECL detection reagents (Amersham) were used to visualize bands.

ERK-1/2 = ERK-1/2 phosphorylation in COS-7/M6 stable transformants (Western blot); settings: 100 ng/ml
PKA = test: Western analysis of kinase phosphorylation in COS-7/CD74+CD44 cells; settings: 100 ng/ml for 10 minutes
Protocol: FIGS. 12A-12E show the phosphoserine content of CD74 and CD44 measured by ELISA. […] The ELISA values represent the mean±SD of triplicate measurements. Experiments were replicated twice. *P<0.02 versus corresponding control (Student's T test, two-tailed). […] Cell lysates were prepared and probed for PKA and PKC using phospho-specific, and total anti-PKA and anti-PKC antibodies.
Cell lysates were collected and analyzed by immunoblots using a pair of anti-phospho-PICA and anti-(total)-PKA antibodies, a pair of anti-phospho-PKC (all from Cell Signaling) and anti-(total)-PKC (Santa Cruz) antibodies, or a pair of anti-phospho-p56^lck (Cell Signaling) and anti-(total) p56^lck (sc-433, Santa Cruz) antibodies.

erythroid progenitors = test: Cytotoxicity by Trypan blue exclusion
Protocol: as §1

CCR5 = test: Cell surface receptor expression in monocyte-derived macrophages (FACS); settings: 50 ng/ml with PMB 10 μg/ml, 48 h
Protocol: (§4) Cell surface expression of CCR5 and CXCR4 was analyzed by FACS after staining with FITC-conjugated anti-CCR5 and PE-conjugated anti-CXCR4 antibodies (Pharmingen). Results (percent of receptor-positive cells) are shown as mean±SE for three performed experiments.
(§5) Cell surface expression of CCR5 and CXCR4 was analyzed by FACS after staining with FITC-conjugated anti-CCR5 and PE-conjugated anti-CXCR4 antibodies (Pharmingen) (FIG. 9).

CXCR4 = test: as above; settings: 50 ng/ml with PMB 10 μg/ml, 48 h
Protocol: as §4, §5

HIV-1ADA = test: HIV-1 replication in monocyte-derived macrophage cultures (RT activity); settings: recombinant MIF 50 ng/ml
Protocol: Triplicate cultures of monocyte-derived macrophages were infected with HIV-1ADA in the presence of anti-MIF MAb (25 μg/ml) or isotype control. Virus replication was monitored by RT activity in culture supernatants. Results are presented as mean±SD. […] Control cultures were cultivated with PMB mixed with an isotype immunoglobulin with or without MIF.
To investigate this possibility, HIV-infected macrophages were cultured in the presence of a neutralizing anti-MIF antibody or isotype control. Triplicate cultures of monocyte-derived macrophages were infected with HIV-1ADA in the presence of anti-MIF MAb (25 μg/ml) or isotype control. Virus replication was monitored by RT activity in culture supernatants. […] Control cultures were cultivated with PMB mixed with an isotype immunoglobulin with or without MIF.

B1: MIF: macrophage migration inhibitory factor; recombinant mouse or human MIF purified essentially free of endotoxin (protein)
chain: PMFIVNTNVPRASVPDGFLSELTQQLAQATGKPPQYIAVHVVPDQLMAFGGSSEPCALCSLHSIGKIGGAQNRSYSKLLCGLLAERLRISPDRVYINYYDMNAANVGWNNSTFA
- terminal erythropoietic differentiation (DAF stain) ([1]; MIF 200 ng/ml for 96 hrs): inhibited the terminal erythropoietic differentiation
- hemoglobin production ([1]; cellular hemoglobin content of cultured K562 progenitor cells): inhibition of cytodifferentiation and hemoglobin production
- protection from apoptosis [2]: significant protective effect
- R5 HIV-1 replication (RT activity) (R5 (ADA) strain of HIV-1): reduced R5 HIV-1 replication
- X4 HIV-1 replication (RT activity) (X4 (LAI) strain of HIV-1): did not reduce replication
- p56^lck phosphorylation (p56^lck): phosphorylated by MIF treatment
- time of decay of ERK-1/2 phosphorylation (ERK-1/2): 30 min
- ERK-1/2 phosphorylation (ERK-1/2; cells transfected with CD74, CD44, CD74+CD44 or CD74+CD44^Δ67): induced ERK-1/2 phosphorylation only in those cells expressing both CD74 and full-length CD44
- phosphorylation of PKA (PKA): MIF-dependent phosphorylation of PKA
- cytotoxic effects (erythroid progenitors): Neither MIF nor anti-MIF were found to exert cytotoxic effects
- CCR5 expression (CCR5): substantially reduces CCR5 expression
- CXCR4 expression (CXCR4): without altering expression of CXCR4
- HIV-1 replication (RT activity) (HIV-1ADA): significantly suppressed replication
